# Assay results reported in FireProtDB (doi:10.1021/bi001735j).
# “And” between values parts separate entries of the source, which are not always exact repeats. Equal values may be shown once.
# B1: Alpha-lactalbumin wild type, P00709 (protein)
# chain: MRFFVPLFLVGILFPAILAKQFTKCELSQLLKDIDGYGGIALPELICTMFHTSGYDTQAIVENNESTEYGLFQISNKLWCKSSQVPQSRNICDISCDKFLDDDITDDIMCAKKILDIKGIDYWLAHKALCTEKLEQWLCEKL
# Conditions: Homo sapiens, pH 7, 25 °C, GdnHCl, CD, sodium cacodylate 50 mM, NaCl 50 mM, whole UniProt chain shown
protein,measurement,setting,value
B1,denaturant m value,transition: 3,2.2 kcal/mol/M and 0.77 kcal/mol/M and 0.75 kcal/mol/M
same,denaturant m value,,2.9 kcal/mol/M and 2.4 kcal/mol/M and 4.4 kcal/mol/M
same,unfolding free energy,,6.9 kcal/mol and 7.2 kcal/mol and 13.8 kcal/mol
